Laboratory results reported in doi:10.1101/2024.05.23.595586 (bioRxiv, 2024).

Target: T1, MBP-TREM2 N79Q (MBP fused to TREM2 19-134) (human, UniProt Q9NZC2 19-134, N79Q)
T1 sequence (looked up): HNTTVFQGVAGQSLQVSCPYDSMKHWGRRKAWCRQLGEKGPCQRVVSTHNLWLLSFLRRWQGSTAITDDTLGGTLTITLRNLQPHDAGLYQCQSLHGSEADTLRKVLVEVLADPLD
Test: crystal structure

- binding result: binds
Binder: DAEFRHDS [Amyloid beta peptide (1-8)]
